Assay results as given in patent publication US20250354131A1, “NOVEL GLYCOSYNTHASE” (CarboCode S.A., priority 2021, published 2025).
Where a chain is given by its changes, count along the chain named. Names may count otherwise.

B1: SEQ ID NO: 8: EGC synthase, E350S, D312Y, Δ1-24, N-term. His-Tag, Δ146-152; Rhodococcus sp. AQ5-07 (protein)
chain: MGHHHHHHMQGSLPTSGSAGGTDVPPSYLTDDAGRSLILRGFNTASSAKSEPEPGQYDQEYLDRVEDRVSWYAERGYKVMLDMHQDVYSGAITPEGNIGNGAPAWATYMDGLPVSPQDRWELYYIQPGVMRAFDNFWNTTGQHPELVEHYANAWQAVAERFAGNDTVVAYDLMNEPWGGSLQGPAFEGGPLAALYQRTTNAIREVDQDSWVCVAPQAVGVNQGVPSGLTKINDPRAGEQRIAYCPHLYPLPLDLGYGYSGLSRTLTDATIDTWRDSVEHIAGNVLGGVPVILASFGLDTTLPGATDYIDRVYATARELGAGVSYWSSDPGPWGPYLPDGTQTLLVDTLNRPYPRAVAGTPTEWSSSVDRLQLTFTPNPAVTAPTEIYLPESGFPGGVDVAGADIVNWNPQSRLLTVEAPDGMPKFTEADLEREHADMGTNFVRFLISWRSVTADDAGPVTVTVTPAS
modifications: N-terminal His-tag
B2: SEQ ID NO: 17: Reference EGC synthase, E351S, D314Y, A153T, Δ1-30, N-term. His-Tag; Rhodococcus sp. strain M-777 (protein)
chain: MGSSHHHHHHSSGLVPRGSHMSGSGSGSGTALTPSYLKDDDGRSLILRGFNTASSAKSAPDGMPQFTEADLAREYADMGTNFVRFLISWRSVEPAPGVYDQQYLDRVEDRVGWYAERGYKVMLDMHQDVYSGAITPEGNSGNGTGAIGNGAPAWATYMDGLPVEPQPRWELYYIQPGVMRAFDNFWNTTGKHPELVEHYAKAWRAVADRFADNDAVVAYDLMNEPFGGSLQGPAFEAGPLAAMYQRTTDAIRQVDQDTWVCVAPQAIGVNQGLPSGLTKIDDPRAGQQRIAYCPHLYPLPLDIGYGHEGLARTLTDVTIDAWRANTAHTARVLGDVPIILGSFGLDTTLPGARDYIERVYGTAREMGAGVSYWSSDPGPWGPYLPDGTQTLLVDTLNKPYPRAVAGTPTEWSSTSDRLQLTIEPDAAITAPTEIYLPEAGFPGDVHVEGADVVGWDRQSRLLTVRTPADSGNVTVTVTPAA
modifications: N-terminal His-tag
B3: SEQ ID NO: 4: EGC synthase, E350S, Δ1-24, N-term. His-Tag; Rhodococcus sp. AQ5-07 (protein)
chain: MGHHHHHHMQGSLPTSGSAGGTDVPPSYLTDDAGRSLILRGFNTASSAKSEPEPGQYDQEYLDRVEDRVSWYAERGYKVMLDMHQDVYSGAITPEGNSGNGAGNIGNGAPAWATYMDGLPVSPQDRWELYYIQPGVMRAFDNFWNTTGQHPELVEHYANAWQAVAERFAGNDTVVAYDLMNEPWGGSLQGPAFEGGPLAALYQRTTNAIREVDQDSWVCVAPQAVGVNQGVPSGLTKINDPRAGEQRIAYCPHLYPLPLDLGDGYSGLSRTLTDATIDTWRDSVEHIAGNVLGGVPVILASFGLDTTLPGATDYIDRVYATARELGAGVSYWSSDPGPWGPYLPDGTQTLLVDTLNRPYPRAVAGTPTEWSSSVDRLQLTFTPNPAVTAPTEIYLPESGFPGGVDVAGADIVNWNPQSRLLTVEAPDGMPKFTEADLEREHADMGTNFVRFLISWRSVTADDAGPVTVTVTPAS
modifications: N-terminal His-tag
B4: SEQ ID NO: 5: EGC synthase, E350S, Δ146-152; Rhodococcus sp. AQ5-07 (protein)
chain: MRRIPLSALIVAGSLILGGGIAAAQGSLPTSGSAGGTDVPPSYLTDDAGRSLILRGFNTASSAKSAPDGMPKFTEADLEREHADMGTNFVRFLISWRSVEPEPGQYDQEYLDRVEDRVSWYAERGYKVMLDMHQDVYSGAITPEGNIGNGAPAWATYMDGLPVSPQDRWELYYIQPGVMRAFDNFWNTTGQHPELVEHYANAWQAVAERFAGNDTVVAYDLMNEPWGGSLQGPAFEGGPLAALYQRTTNAIREVDQDSWVCVAPQAVGVNQGVPSGLTKINDPRAGEQRIAYCPHLYPLPLDLGDGYSGLSRTLTDATIDTWRDSVEHIAGNVLGGVPVILASFGLDTTLPGATDYIDRVYATARELGAGVSYWSSDPGPWGPYLPDGTQTLLVDTLNRPYPRAVAGTPTEWSSSVDRLQLTFTPNPAVTAPTEIYLPESGFPGGVDVAGADIVNWNPQSRLLTVETADDAGPVTVTVTPAS
B5: SEQ ID NO: 18: EGC synthase, E351S, D314Y, Δ1-30, N-term. His-Tag, Δ148-154; Rhodococcus sp. strain M-777 (protein)
chain: MGSSHHHHHHSSGLVPRGSHMSGSGSGSGTALTPSYLKDDDGRSLILRGFNTASSAKSAPDGMPQFTEADLAREYADMGTNFVRFLISWRSVEPAPGVYDQQYLDRVEDRVGWYAERGYKVMLDMHQDVYSGAITPEGAIGNGAPAWATYMDGLPVEPQPRWELYYIQPGVMRAFDNFWNTTGKHPELVEHYAKAWRAVADRFADNDAVVAYDLMNEPFGGSLQGPAFEAGPLAAMYQRTTDAIRQVDQDTWVCVAPQAIGVNQGLPSGLTKIDDPRAGQQRIAYCPHLYPLPLDIGYGHEGLARTLTDVTIDAWRANTAHTARVLGDVPIILGSFGLDTTLPGARDYIERVYGTAREMGAGVSYWSSDPGPWGPYLPDGTQTLLVDTLNKPYPRAVAGTPTEWSSTSDRLQLTIEPDAAITAPTEIYLPEAGFPGDVHVEGADVVGWDRQSRLLTVRTPADSGNVTVTVTPAA
modifications: N-terminal His-tag
B6: SEQ ID NO: 15: EGC synthase, E339S, Δ1-26; Rhodococcus hoagii 103S (SEQ ID NO: 14) (protein)
chain: MAPPATPITTLQADGTHLVDGYGRTVLLHGVNNVDKDAPYLPAGETLTPQDIDILVRHGFNTVRLGTSFDALMPQRGQIDEAYLDRLTGVVDALTARGMHVLLDNHQDGLSKAWGGNGFPEWAIESRPREWEPNPGFPLYYLMPSLNAGWDEVWGNTHGALDHLGTALGALAERVEGKPGVMGIELLNEPWPGSRFLSCFPNGCPDFDRTYQAAMQKLTDAVRAQNPTIPVYWEPNVTWNQMMPSNLFAPPVTPALTTADVVFAPHDYCIPSQLAIYLGLPQALRGLCVPQQDLTWSNIDAITERANVPTVITSFGDGDPTVLKNTLARADERFIGWQYWHFGAGNATDPFLGEVGRQLVRTYPQATAGEPGRMIFDADNGDFAYRFTPRAATRPTEIFVSDLHYPDGYAVQVDGGQVTSAPGARIVTVVADGSGPVTVKINRPGSAGAEVPDGPIETSSSGSSGSS
B7: SEQ ID NO: 6: EGC synthase, E350S, Δ1-24, N-term. His-Tag, Δ146-152; Rhodococcus sp. AQ5-07 (protein)
chain: B1 chain with Y256D
modifications: N-terminal His-tag

Experiment: Km determination of EGC synthases with lactosyl fluoride and sphingosine (HPLC-ELSD)
Type: biochemical
Details: Donor Lac-F, acceptor sphingosine; cell-free extract
Experimental: The assay mixture contained 1 M sodium acetate buffer at pH 5.5, 20 mg/mL sphingosine-base and EGCS enzyme. As a reference, EGC synthase of SEQ ID NO:17 was used. Six different concentrations of lactosyl fluoride (Lac-F) ranging from 5 mg/mL to 164 mg/mL were assayed. From every assay mixture, four time points were collected by quenching the reaction with 19× volume of DMSO. The samples were analyzed by HPLC-ELSD analysis and conversion rates were determined by linear regression.
For B1, the “U/mg CFE” value was 0.60 U/mg CFE. With B2 the “U/mg CFE” value was 0.074 U/mg CFE. For B3, the “U/mg CFE” value was 0.20 U/mg CFE. For B4, the “U/mg CFE” value was 0.61 U/mg CFE.

Same assay, conditions: relative to reference SEQ ID NO: 17; donor Lac-F, acceptor sphingosine
In the case of B1, the “Fold improvement to reference” value is reported as 8.1. In the case of B2, the “Fold improvement to reference” value is reported as 1.0. For B3, the “Fold improvement to reference” value was 2.7. With B4 the “Fold improvement to reference” value was 8.2.

Experiment: Production of lactosyl-6-hydroxysphingosine: conversion rates of different enzymes
Type: biochemical
Details: Time 1 h; 30 mg/mL 6-OH-Sph, 300 mg/mL Lac-F, 1 M NaOAc, pH 6.0, 37° C.
Experimental: Reaction contained: 30 mg/mL 6-OH-Sph, 300 mg/mL Lac-F, enzyme, 1 M NaOAc.
Reactions were executed at pH 6.0, 37° C. and 1500 rpm stirring. Product analysis was done by ELSD (% rel. conversion) and LC-MS using standard conditions for Lac-Sph analysis.
In the case of B1, the “Conversion [% ELSD area product]” value is reported as 100 % ELSD area product. With B2 the “Conversion [% ELSD area product]” value was 99.4 % ELSD area product. With B5 the “Conversion [% ELSD area product]” value was 99.3 % ELSD area product. For B6, the “Conversion [% ELSD area product]” value was 3.7 % ELSD area product. In the case of B7, the “Conversion [% ELSD area product]” value is reported as 100 % ELSD area product.

Same assay, conditions: Time 2 h; 30 mg/mL 6-OH-Sph, 300 mg/mL Lac-F, 1 M NaOAc, pH 6.0, 37° C.
With B1 the “Conversion [% ELSD area product]” value was 100 % ELSD area product. With B2 the “Conversion [% ELSD area product]” value was 100 % ELSD area product. For B5, the “Conversion [% ELSD area product]” value was 99.8 % ELSD area product. In the case of B6, the “Conversion [% ELSD area product]” value is reported as 9.1 % ELSD area product. In the case of B7, the “Conversion [% ELSD area product]” value is reported as 100 % ELSD area product.

Experiment: Enzymatic conversion of lactosyl sphingoid bases with β-galactosidase
Type: biochemical
Details: within about 48 to about 72 hours at about 37° C.; 1 M NaOAc pH 5.0, 5 g/L β-cyclodextrin, 5 g/L enzyme
Experimental: Enzymatic reactions were performed in 1 M NaOAc buffer (pH set to 5.0). A typical reaction mixture contained 50-100 g/L of lactosyl sphingoid base (synthesised according to the general procedure of Example 3 or Example 5), 5 g/L of β-cyclodextrin, 5 g/L of β-galactosidase (e.g. from A. oryzae). Typically, the reaction proceeds up to 99% conversion within about 48 to about 72 hours at about 37° C. and continuous stirring. The enzymatic reaction was followed by LCMS analysis (for methods and conditions see Example 9).
Samples (25 μL) were taken from reaction mixtures, mixed with DMSO (950 μL) and subjected to centrifugation (16.000 rpm, 5 min) and analyzed with a Shimadzu ECO 2020 LC system coupled with a Shimadzu LCMS-2020 system. The HPLC analysis was performed using a Merck Ascentis Express RP-Amide column (15 cm×4.6 mm, 2.7 μm). For analysis of compounds the eluent consisted of solvent D (2 mM ammonium formate, […], 75% v/v MeOH, 25% v/v ACN)-solvent C (2 mM formic acid in filtered ddH2O), and the following gradient was applied as stated in the table below. The flow rate was 1 mL/min. The MS analysis was performed under the following conditions: ESI positive ionization, vaporizer temperature 300° C.; LC-MS mode, 1:1 split of flow; ESI negative ionization, vaporizer temperature 300° C.; LC-MS mode, 1:1 split of flow.
In the case of β-galactosidase, the conversion is reported as “up to 99%”.
